The numbers were not newly measured in article PMC12406711, which cites them from elsewhere.

For this data set, the target named is PCDH10 ECD (Homo sapiens) (UniProt Q9P2E7).

PCDH10 ECD (from UniProt Q9P2E7): the equilibrium dissociation constant (Kd) was 3.6 µM.

The Kd is a measure of binding affinity in units of concentration.
